Read-outs that look alike come from different tables or passages of the source.
How the values were obtained:
[1] = biological target: muscle-type nicotinic acetylcholine receptor from the electric organ of Torpedo californica (Torpedo californica (endogenous in electric organ)) (UniProt P02710); experiment: radioligand binding
[2] = biological target: muscle-type nicotinic acetylcholine receptor from the electric organ of Torpedo californica (Torpedo californica (endogenous in electric organ)) (UniProt P02710); experiment: radioligand binding; remark: listed apart in the source

UniProt P02710, sequence (P02710 25-461 limits assumed, chain 1 of 4): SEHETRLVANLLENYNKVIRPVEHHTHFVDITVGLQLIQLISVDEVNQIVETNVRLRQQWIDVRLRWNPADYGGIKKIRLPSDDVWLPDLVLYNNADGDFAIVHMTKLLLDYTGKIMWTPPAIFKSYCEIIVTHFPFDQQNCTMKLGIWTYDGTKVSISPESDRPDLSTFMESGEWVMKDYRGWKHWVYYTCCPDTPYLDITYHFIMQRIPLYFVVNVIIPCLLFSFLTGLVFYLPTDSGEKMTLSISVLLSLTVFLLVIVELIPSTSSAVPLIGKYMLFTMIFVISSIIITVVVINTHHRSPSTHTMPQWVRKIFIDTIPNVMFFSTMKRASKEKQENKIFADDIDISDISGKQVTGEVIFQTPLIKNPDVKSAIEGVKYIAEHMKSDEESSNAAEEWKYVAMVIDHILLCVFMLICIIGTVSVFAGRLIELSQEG
UniProt P02710, sequence (P02712 25-493 limits assumed, chain 2 of 4, further chain): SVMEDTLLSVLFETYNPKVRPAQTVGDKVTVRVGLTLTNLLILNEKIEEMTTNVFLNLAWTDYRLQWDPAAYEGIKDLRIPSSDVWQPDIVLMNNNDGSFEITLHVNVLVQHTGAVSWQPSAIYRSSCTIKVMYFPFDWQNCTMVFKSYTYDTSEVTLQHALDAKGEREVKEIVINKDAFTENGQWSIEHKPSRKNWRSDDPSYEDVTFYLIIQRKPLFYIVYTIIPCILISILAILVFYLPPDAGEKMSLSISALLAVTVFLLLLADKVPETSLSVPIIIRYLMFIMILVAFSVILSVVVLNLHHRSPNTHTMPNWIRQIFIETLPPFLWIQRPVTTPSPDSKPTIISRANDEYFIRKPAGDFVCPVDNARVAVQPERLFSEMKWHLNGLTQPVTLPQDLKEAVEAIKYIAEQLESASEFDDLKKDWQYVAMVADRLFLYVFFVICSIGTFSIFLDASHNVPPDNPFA
UniProt P02710, sequence (P02714 18-506 limits assumed, chain 3 of 4, further chain): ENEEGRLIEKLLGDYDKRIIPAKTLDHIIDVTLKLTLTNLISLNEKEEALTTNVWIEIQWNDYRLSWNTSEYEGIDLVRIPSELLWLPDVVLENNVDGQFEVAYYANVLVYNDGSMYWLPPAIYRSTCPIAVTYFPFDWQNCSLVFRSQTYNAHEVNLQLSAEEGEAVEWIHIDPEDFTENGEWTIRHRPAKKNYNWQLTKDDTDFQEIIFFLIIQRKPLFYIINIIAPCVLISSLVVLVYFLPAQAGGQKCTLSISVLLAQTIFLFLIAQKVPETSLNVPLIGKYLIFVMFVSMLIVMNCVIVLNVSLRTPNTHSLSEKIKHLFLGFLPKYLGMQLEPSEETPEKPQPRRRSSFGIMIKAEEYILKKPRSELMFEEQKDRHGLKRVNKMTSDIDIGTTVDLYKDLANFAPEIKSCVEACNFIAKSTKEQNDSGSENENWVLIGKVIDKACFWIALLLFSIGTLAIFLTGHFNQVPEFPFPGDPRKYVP
UniProt P02710, sequence (P02718 22-522 limits assumed, chain 4 of 4, further chain): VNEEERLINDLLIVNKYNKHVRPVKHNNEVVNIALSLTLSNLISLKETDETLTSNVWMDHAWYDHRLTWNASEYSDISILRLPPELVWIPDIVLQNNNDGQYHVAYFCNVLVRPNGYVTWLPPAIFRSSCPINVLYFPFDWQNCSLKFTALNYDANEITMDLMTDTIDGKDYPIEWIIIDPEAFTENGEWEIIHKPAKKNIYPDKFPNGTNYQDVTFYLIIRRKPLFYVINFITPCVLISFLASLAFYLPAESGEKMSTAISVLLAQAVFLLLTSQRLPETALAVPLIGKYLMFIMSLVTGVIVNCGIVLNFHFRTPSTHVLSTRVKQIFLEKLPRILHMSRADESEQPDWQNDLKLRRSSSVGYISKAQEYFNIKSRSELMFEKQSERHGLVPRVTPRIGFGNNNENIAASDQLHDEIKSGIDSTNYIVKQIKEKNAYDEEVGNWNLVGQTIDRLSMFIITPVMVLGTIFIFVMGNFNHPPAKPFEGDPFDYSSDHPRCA

Row | Binder | IC50 [1] [µM] | IC50 [2] [µM]
1 | synthetic SLURP-1 (natural protein) LKCYTCKEPMTSASCRTITRCKPEDTACMTTLVTVEAEYPFNQSPVVTRSCSSSCVATDPDSIGAAHLIFCCFRDLCNSEL | 3.92 | 4.05
2 | recombinant SLURP-1 with one additional N-terminal Met residue (natural protein) MLKCYTCKEPMTSASCRTITRCKPEDTACMTTLVTVEAEYPFNQSPVVTRSCSSSCVATDPDSIGAAHLIFCCFRDLCNSEL | 9.55 | 10.7

From paper PMC10707033
